Assay results as given in patent publication US20040132659A1 (UNIVERSITY OF SOUTHERN CALIFORNIA, published 2004).

Columns and labels:
integrin αvβ3 on cells = integrin αvβ3 on cells (human, UniProt P06756 31-1048; P05106 27-788); assay: cell-based or functional assay
[1] = biological target: integrin αvβ5 on cells (human) (UniProt P06756); assay: cell-based or functional assay
[2] = biological target: T1, platelet membrane glycoprotein (GP)IIb/IIIa on human platelets (human, UniProt P08514 32-1039; P05106 27-788)
T1 sequence (P08514 32-1039, chain 1 of 2): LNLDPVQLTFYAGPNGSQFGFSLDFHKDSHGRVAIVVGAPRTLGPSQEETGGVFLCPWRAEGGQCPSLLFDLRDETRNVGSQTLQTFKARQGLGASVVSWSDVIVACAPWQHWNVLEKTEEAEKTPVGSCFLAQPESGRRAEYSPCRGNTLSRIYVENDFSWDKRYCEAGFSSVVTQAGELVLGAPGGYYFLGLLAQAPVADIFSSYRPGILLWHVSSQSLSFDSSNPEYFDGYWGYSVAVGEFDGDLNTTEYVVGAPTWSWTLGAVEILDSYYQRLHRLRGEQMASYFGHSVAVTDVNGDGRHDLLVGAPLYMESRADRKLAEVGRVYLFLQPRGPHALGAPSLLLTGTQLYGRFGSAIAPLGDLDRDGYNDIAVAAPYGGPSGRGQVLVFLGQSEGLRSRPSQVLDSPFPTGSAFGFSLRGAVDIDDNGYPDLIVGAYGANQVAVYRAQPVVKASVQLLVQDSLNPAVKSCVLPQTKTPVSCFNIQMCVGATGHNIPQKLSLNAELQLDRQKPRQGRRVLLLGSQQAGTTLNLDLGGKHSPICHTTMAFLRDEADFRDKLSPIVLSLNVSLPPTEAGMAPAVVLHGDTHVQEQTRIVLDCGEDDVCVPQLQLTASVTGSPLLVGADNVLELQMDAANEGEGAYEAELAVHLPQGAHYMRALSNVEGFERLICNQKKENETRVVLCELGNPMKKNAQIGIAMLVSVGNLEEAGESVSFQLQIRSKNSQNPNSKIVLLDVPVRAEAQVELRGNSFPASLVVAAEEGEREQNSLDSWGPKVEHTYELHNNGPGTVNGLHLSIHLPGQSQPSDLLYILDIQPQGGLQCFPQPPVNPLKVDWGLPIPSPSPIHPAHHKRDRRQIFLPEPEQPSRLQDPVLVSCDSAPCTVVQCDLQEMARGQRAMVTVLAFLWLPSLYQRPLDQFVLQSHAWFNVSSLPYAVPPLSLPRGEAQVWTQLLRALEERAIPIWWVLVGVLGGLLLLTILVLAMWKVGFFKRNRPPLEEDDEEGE
T1 sequence (P05106 27-788, chain 2 of 2): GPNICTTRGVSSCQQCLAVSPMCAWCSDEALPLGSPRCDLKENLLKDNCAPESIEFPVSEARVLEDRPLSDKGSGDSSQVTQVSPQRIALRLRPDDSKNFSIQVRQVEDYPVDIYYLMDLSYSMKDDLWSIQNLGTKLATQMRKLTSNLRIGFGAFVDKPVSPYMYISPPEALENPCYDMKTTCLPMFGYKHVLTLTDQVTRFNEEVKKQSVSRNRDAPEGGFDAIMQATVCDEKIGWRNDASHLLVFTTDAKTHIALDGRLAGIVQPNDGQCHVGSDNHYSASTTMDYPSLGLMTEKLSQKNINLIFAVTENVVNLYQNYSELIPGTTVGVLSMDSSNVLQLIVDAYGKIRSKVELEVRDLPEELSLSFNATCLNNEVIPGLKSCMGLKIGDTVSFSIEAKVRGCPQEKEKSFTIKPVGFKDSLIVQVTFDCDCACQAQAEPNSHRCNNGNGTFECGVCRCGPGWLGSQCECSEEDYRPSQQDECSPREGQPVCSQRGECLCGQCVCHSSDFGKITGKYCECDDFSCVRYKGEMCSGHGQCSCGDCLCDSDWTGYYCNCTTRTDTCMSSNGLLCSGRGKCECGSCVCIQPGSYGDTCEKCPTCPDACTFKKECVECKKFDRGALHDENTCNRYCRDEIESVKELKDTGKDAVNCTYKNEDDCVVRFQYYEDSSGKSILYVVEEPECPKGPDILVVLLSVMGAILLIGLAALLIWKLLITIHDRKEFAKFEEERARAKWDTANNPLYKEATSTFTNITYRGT

[3] = biological target: integrin receptors on the surface of MDA-MB-435 cells; assay: cell-based or functional assay
[4] = biological target: binding sites on human melanoma M24met cells; assay: binding of CN to human melanoma M24met cells, lower affinity site
[5] = biological target: T1, platelet membrane glycoprotein …; assay: Scatchard analysis of CN binding to unactivated human platelets
[6] = biological target: binding sites on human melanoma M24met cells; assay: binding of CN to human melanoma M24met cells, high affinity site
[7] = biological target: integrin receptors on the surface of MDA-MB-435 cells; assay: inhibition of binding of MDA-MB-435 cells to immobilized CN (0.1 µg/well); competitor: immobilized CN

Sequence of integrin αvβ5 on cells (human) (P06756 31-1048, chain 1 of 2): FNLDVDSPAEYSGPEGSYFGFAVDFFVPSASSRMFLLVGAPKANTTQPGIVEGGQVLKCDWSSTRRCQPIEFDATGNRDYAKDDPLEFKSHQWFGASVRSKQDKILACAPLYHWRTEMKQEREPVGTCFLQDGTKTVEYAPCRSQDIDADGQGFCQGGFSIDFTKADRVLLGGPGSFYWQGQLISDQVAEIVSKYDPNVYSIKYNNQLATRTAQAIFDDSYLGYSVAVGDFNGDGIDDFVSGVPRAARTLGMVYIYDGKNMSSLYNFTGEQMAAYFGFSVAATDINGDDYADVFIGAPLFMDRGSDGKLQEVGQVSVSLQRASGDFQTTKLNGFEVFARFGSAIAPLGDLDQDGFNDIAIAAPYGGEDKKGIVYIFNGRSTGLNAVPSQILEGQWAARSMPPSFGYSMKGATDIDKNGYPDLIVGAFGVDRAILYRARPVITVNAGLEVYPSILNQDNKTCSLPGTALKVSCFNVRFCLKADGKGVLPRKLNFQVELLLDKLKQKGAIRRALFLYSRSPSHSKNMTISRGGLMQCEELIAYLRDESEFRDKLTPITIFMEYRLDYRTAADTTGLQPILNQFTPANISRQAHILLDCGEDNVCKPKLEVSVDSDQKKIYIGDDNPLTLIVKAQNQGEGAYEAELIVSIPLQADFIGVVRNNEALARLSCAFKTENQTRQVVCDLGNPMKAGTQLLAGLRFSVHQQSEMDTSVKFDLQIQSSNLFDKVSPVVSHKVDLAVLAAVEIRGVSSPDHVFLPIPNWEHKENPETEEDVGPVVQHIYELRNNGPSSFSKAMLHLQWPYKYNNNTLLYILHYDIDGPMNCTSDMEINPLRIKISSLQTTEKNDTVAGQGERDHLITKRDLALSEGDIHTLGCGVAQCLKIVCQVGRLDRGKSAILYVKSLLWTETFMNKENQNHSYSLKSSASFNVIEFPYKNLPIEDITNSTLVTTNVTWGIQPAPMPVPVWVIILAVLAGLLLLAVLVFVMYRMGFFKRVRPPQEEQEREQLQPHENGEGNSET
Sequence of integrin αvβ5 on cells (human) (P18084 24-799, chain 2 of 2, further chain): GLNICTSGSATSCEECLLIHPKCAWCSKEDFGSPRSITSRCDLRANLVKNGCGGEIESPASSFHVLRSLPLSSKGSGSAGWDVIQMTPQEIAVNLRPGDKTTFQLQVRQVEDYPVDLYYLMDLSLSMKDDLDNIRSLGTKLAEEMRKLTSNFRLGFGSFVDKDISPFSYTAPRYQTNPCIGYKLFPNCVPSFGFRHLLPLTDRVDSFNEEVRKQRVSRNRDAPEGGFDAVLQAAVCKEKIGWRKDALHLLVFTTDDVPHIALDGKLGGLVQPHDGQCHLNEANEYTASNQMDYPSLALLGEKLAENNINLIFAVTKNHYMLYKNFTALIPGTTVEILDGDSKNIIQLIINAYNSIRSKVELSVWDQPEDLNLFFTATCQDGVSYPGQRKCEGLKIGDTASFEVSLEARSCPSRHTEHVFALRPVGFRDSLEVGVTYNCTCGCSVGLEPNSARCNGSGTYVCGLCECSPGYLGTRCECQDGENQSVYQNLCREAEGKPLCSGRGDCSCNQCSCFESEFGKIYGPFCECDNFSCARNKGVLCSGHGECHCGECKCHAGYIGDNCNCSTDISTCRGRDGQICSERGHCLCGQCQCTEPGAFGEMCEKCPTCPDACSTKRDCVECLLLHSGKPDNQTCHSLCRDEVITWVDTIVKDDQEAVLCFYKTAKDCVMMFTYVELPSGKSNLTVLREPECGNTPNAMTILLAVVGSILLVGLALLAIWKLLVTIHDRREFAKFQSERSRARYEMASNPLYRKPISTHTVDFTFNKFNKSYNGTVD
Sequence of integrin αvβ3 on cells (P06756 31-1048, chain 1 of 2): as the sequence (P06756 31-1048, chain 1 of 2) above
Sequence of integrin αvβ3 on cells (P05106 27-788, chain 2 of 2): as the sequence (P05106 27-788, chain 2 of 2) above

## 7E3 murine monoclonal antibody
Integrin αvβ3 on cells
  maximum inhibition of adhesion of T24 cells to immobilized vitronectin: < 40%

## P1F6 monoclonal antibody
[1]
  inhibition of adhesion of T24-β3 neg. cells to immobilized vitronectin: 80%
  inhibition of adhesion of T24 cells to immobilized vitronectin: < 40%

B1: contortrostatin (ligand)
chain: DAPANPCCDAATCKLTTGSQCADGLCCDQCKFMKEGTVCRRARGDDLDDYCNGISAGCPRNPFHA
notes: also called CN; homodimeric disintegrin
[2]
  IC50: 25 nM
[3]
  IC50 for inhibition of adhesion of MDA-MB-435 cells to immobilized fibronectin: 18 nM
[4]
  Kd: 41 nM
  sites per cell (sites per cell): 480000
Integrin αvβ3 on cells
  IC50 for inhibition of adhesion of MDA-MB-435 cells to immobilized vitronectin: 1.5 nM
[5]
  Kd: 37 nM
[6]
  Kd: 1.1 nM
  sites per cell (sites per cell): 96000

## GRGDSP [RGD peptide GRGDSP]
[7]
  IC50: 400000 nM
